# Test results published in paper PMC8395497.
# Columns and labels:
# [1] = target: Halisarca dujardini ferritin HdF1a/b (Halisarca dujardini (endogenous in sponge body tissue)); test: native gel or EMSA; sponge body tissue homogenates (20 mM EDTA, 50 mM Hepes-Na pH 7.2, 200 mM NaCl, 4 °C) on a native 3.5-10% polyacrylamide gradient gel in 50 mM Bis-Tris-glycine pH 8.0; Prussian blue staining and UV 360 nm absorbance; markers horse ferritin (440 kDa) and thyroglobulin (670 kDa); high molecular mass bands cut out and identified by MALDI/TOF mass spectrometry
# [2] = target: Halichondria panicea ferritin HpF1 (Halichondria panicea (endogenous in sponge body tissue)); test: as above
Substance,stoichiometry N [1] [subunits],stoichiometry N [2] [subunits]
Halisarca dujardini ferritin HdF1a/b (natural protein),24,
Halichondria panicea ferritin HpF1 (natural protein),,24
